PMC5656675, “Structure based biophysical characterization of the PROPPIN Atg18 shows Atg18 oligomerization upon membrane binding” (Scientific Reports, 2017)
Changes are numbered by the printed parent chain.

B1: Pichia angusta Atg18 (wild type) (natural protein, Pichia angusta (Hansenula polymorpha))
chain: MASPNPLAFEAATAAHEVAASYVTEHKPRKNDNINFANFNQDFSCVSVGYSNGYKIYNCEPFGQCYSKSDGSIGIVEMLFSSSLLAIVGMGEQHSLSPRRLKIINTKRQTTICELTFPGAILAVKLNRERLVVLLEETIYIYDINNMRLLHTIETPSNPNGLIALSPSSENNYLAYPSPQKLAPNPQTEVTLHSNPQTVRNGDVIIFDAKTLQPTSVIEAHRTSLAAIALSKDGLLLATASDKGTIIRVFSVATGIKLYQFRRGTYPTKIYSLAFSPDNRFVIASSATETVHIFRLGEEEAANTIKSANKKARLTKAQVPNPLETSPDIYPHNQHTSSDEDEELNEDEEDLDGDEDEDLEDDAHVPVSLQRGRSSSSTGSFHSSESMTDKLKEPLVDNSRKSVARMLRRTSQSLGRKAAEKMGTYLPPKFSSILEPNRHFASLKVPASKETKTVVGVGSKIWDDLIPSVYLKDDANSITETSEDLVNKKLVHIMVITSEGFFYKFGLDPERGGDCVLLHQQSLFG
notes: Atg18 of Pichia angusta (Hansenula polymorpha), UniProt entry Q5QA94, synthetic gene in pET-28a; also called PaAtg18; source: E. coli, purified (HisTrap, Superdex 200); not shown: His-tag, N-terminal, kept
B2: Atg18 C113 single cysteine mutant, fluorescently labelled (natural protein, Pichia angusta (Hansenula polymorpha))
chain: B1 chain with C45A, C59A, C65A, C515A
modifications: C113 labelled with Alexa Fluor 488 C5 maleimide (donor) or Alexa Fluor 546 C5 maleimide (acceptor); in the repeat with Oregon Green 488 maleimide or Texas Red C2 maleimide
notes: Atg18 of Pichia angusta (Hansenula polymorpha), UniProt entry Q5QA94, synthetic gene in pET-28a; single cysteine mutant that keeps C113; That the other four are alanine in it is read from this; Two differently labelled copies of the same protein were mixed; also called C113 mutant; source: E. coli, purified (HisTrap, Superdex 200), labelled with maleimide dye

Legend:
[1] = target: the molecule itself; assay: native MS; purified Atg18 exchanged into 200 mM ammonium acetate; Q-ToF Ultima modified for high mass complexes
[2] = target: the molecule itself; assay: FRET or BRET; stopped-flow, 0.5 µM acceptor-labelled Atg18 C113 bound to LUVs with PtdIns(3,5)P2 (1 mM total lipid) mixed with 0.5 µM donor-labelled Atg18 C113 free in solution; 25 °C, HP150 buffer with 0.1 mM TCEP; dye pairs Alexa Fluor 488/546 and Oregon Green/Texas Red

Protein | stoichiometry N [1] | binding result [2]
B1 | ≤ 4 | 
B2 |  | binds
